Test results published in CN117858904A.

Molecular target: 人SIRPα抗原 (human signal regulatory protein alpha, proprietary antigen) (human) (UniProt P78324)
Test: BLI (Octet Red384), SIRPa on AR2G sensor, 50 nM CD47 without antibody as analyte (positive control), 1200 s association

Chain of UniProt P78324 (P78324 31-370 limits assumed): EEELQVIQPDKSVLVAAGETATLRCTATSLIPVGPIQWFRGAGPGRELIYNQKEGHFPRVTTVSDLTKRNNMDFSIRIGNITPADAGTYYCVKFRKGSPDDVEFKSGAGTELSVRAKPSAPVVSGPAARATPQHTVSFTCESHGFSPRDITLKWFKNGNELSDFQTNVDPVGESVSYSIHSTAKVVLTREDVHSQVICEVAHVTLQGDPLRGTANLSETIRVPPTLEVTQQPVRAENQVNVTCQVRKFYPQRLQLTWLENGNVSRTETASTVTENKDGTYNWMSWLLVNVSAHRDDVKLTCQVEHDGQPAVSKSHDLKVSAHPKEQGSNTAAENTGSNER

专有CD47抗原 (proprietary human CD47 antigen of Examples 6 and 7) (from UniProt Q08722 19-139) (receptor)
信号 (response): 0.297 nm
